Key:
[1] = target: Bacillus anthracis Bla1 β-lactamase (Bacillus anthracis)
KPC-2 β-lactamase = KPC-2 β-lactamase (UniProt Q9F663 25-293); experiment: β-lactamase inhibition assay (nitrocefin hydrolysis, Morrison tight-binding fit); increasing concentrations of BLIP incubated with 1 nM β-lactamase for 1 h at room temperature in 50 mM sodium phosphate pH 7.0; nitrocefin added at its Km, initial velocity at 482 nm; Ki calculated from Ki app; details: both partners purified
TEM-1 β-lactamase = TEM-1 β-lactamase (UniProt P62593 24-286); experiment: as above; details: both partners purified

Molecule | Ki [1] [nM] | Ki (KPC-2 β-lactamase) [nM] | Ki (TEM-1 β-lactamase) [nM]
β-lactamase inhibitory protein (BLIP), wild type (from UniProt P35804 37-201) (natural protein) | 2.5 |  | 
BLIP [change] (natural protein) AGVMTGAKFTQIQFGMTRQQVLDIAGAENCETGGSFGDSIHCRGHAAGDQYAYATFGFTSAAADAKVDSKSQEKLLAPSAPTLTLAKFNQVTVGMTRAQVLATVGQGSCTTWSEYYPAYPSTAGVTLSLSCFDVDGYSSTGFYRGSAHLWFTDGVLQGKRQWDLV |  | 1 | 0.24
BLIP [change] (natural protein) AGVMTGAKFTQIQFGMTRQQVLDIAGAENCETGGSFGDSIHCRGHAAGDMYAYATFGFTSAAADAKVDSKSQEKLLAPSAPTLTLAKFNQVTVGMTRAQVLATVGQGSCTTWSEYYPAYPSTAGVTLSLSCFDVDGYSSTGFYRGSAHLWFTDGVLQGKRQWDLV |  | 0.5 | 0.11
BLIP [change] (natural protein) AGVMTGAKFTQIQFGMTRQQVLDIAGAENCETGGSFGDSIHCRGHAAGDTYAYATFGFTSAAADAKVDSKSQEKLLAPSAPTLTLAKFNQVTVGMTRAQVLATVGQGSCTTWSEYYPAYPSTAGVTLSLSCFDVDGYSSTGFYRGSAHLWFTDGVLQGKRQWDLV |  | 3.5 | 2.5
BLIP [change] (natural protein) AGVMTGAKFTQIQFGMTRQQVLDIAGAENCETGGSFGDSIHCRGHAAGDPYAYATFGFTSAAADAKVDSKSQEKLLAPSAPTLTLAKFNQVTVGMTRAQVLATVGQGSCTTWSEYYPAYPSTAGVTLSLSCFDVDGYSSTGFYRGSAHLWFTDGVLQGKRQWDLV |  | 5 | 40
BLIP [change] (natural protein) AGVMTGAKFTQIQFGMTRQQVLDIAGAENCETGGSFGDSIHCRGHAAGDKYAYATFGFTSAAADAKVDSKSQEKLLAPSAPTLTLAKFNQVTVGMTRAQVLATVGQGSCTTWSEYYPAYPSTAGVTLSLSCFDVDGYSSTGFYRGSAHLWFTDGVLQGKRQWDLV |  | 260 | 195
BLIP [change] (natural protein) AGVMTGAKFTQIQFGMTRQQVLDIAGAENCETGGSFGDSIHCRGHAAGDSYAYATFGFTSAAADAKVDSKSQEKLLAPSAPTLTLAKFNQVTVGMTRAQVLATVGQGSCTTWSEYYPAYPSTAGVTLSLSCFDVDGYSSTGFYRGSAHLWFTDGVLQGKRQWDLV |  | 5 | 1.1
BLIP [change] (natural protein) AGVMTGAKFTQIQFGMTRQQVLDIAGAENCETGGSFGDSIHCRGHAAGDWYAYATFGFTSAAADAKVDSKSQEKLLAPSAPTLTLAKFNQVTVGMTRAQVLATVGQGSCTTWSEYYPAYPSTAGVTLSLSCFDVDGYSSTGFYRGSAHLWFTDGVLQGKRQWDLV |  | 1.1 | 11
BLIP [change] (natural protein) AGVMTGAKFTQIQFGMTRQQVLDIAGAENCETGGSFGDSIHCRGHAAGDEYAYATFGFTSAAADAKVDSKSQEKLLAPSAPTLTLAKFNQVTVGMTRAQVLATVGQGSCTTWSEYYPAYPSTAGVTLSLSCFDVDGYSSTGFYRGSAHLWFTDGVLQGKRQWDLV |  | 5.5 | 76
BLIP [change] (natural protein) AGVMTGAKFTQIQFGMTRQQVLDIAGAENCETGGSFGDSIHCRGHAAGDDYAYATFGFTSAAADAKVDSKSQEKLLAPSAPTLTLAKFNQVTVGMTRAQVLATVGQGSCTTWSEYYPAYPSTAGVTLSLSCFDVDGYSSTGFYRGSAHLWFTDGVLQGKRQWDLV |  | 3.2 | 160
BLIP [change] (natural protein) AGVMTGAKFTQIQFGMTRQQVLDIAGAENCETGGSFGDSIHCRGHAAGDNYAYATFGFTSAAADAKVDSKSQEKLLAPSAPTLTLAKFNQVTVGMTRAQVLATVGQGSCTTWSEYYPAYPSTAGVTLSLSCFDVDGYSSTGFYRGSAHLWFTDGVLQGKRQWDLV |  | 3.8 | 7.8
BLIP [change] (natural protein) AGVMTGAKFTQIQFGMTRQQVLDIAGAENCETGGSFGDSIHCRGHAAGDGYAYATFGFTSAAADAKVDSKSQEKLLAPSAPTLTLAKFNQVTVGMTRAQVLATVGQGSCTTWSEYYPAYPSTAGVTLSLSCFDVDGYSSTGFYRGSAHLWFTDGVLQGKRQWDLV |  | 0.72 | 0.4
BLIP [change] (natural protein) AGVMTGAKFTQIQFGMTRQQVLDIAGAENCETGGSFGDSIHCRGHAAGDCYAYATFGFTSAAADAKVDSKSQEKLLAPSAPTLTLAKFNQVTVGMTRAQVLATVGQGSCTTWSEYYPAYPSTAGVTLSLSCFDVDGYSSTGFYRGSAHLWFTDGVLQGKRQWDLV |  | 42 | 60
BLIP [change] (natural protein) AGVMTGAKFTQIQFGMTRQQVLDIAGAENCETGGSFGDSIHCRGHAAGDHYAYATFGFTSAAADAKVDSKSQEKLLAPSAPTLTLAKFNQVTVGMTRAQVLATVGQGSCTTWSEYYPAYPSTAGVTLSLSCFDVDGYSSTGFYRGSAHLWFTDGVLQGKRQWDLV |  | 1.4 | 5
BLIP [change] (natural protein) AGVMTGAKFTQIQFGMTRQQVLDIAGAENCETGGSFGDSIHCRGHAAGDLYAYATFGFTSAAADAKVDSKSQEKLLAPSAPTLTLAKFNQVTVGMTRAQVLATVGQGSCTTWSEYYPAYPSTAGVTLSLSCFDVDGYSSTGFYRGSAHLWFTDGVLQGKRQWDLV |  | 0.7 | 0.17
BLIP [change] (natural protein) AGVMTGAKFTQIQFGMTRQQVLDIAGAENCETGGSFGDSIHCRGHAAGDFYAYATFGFTSAAADAKVDSKSQEKLLAPSAPTLTLAKFNQVTVGMTRAQVLATVGQGSCTTWSEYYPAYPSTAGVTLSLSCFDVDGYSSTGFYRGSAHLWFTDGVLQGKRQWDLV |  | 15 | 10.3
BLIP [change] (natural protein) AGVMTGAKFTQIQFGMTRQQVLDIAGAENCETGGSFGDSIHCRGHAAGDVYAYATFGFTSAAADAKVDSKSQEKLLAPSAPTLTLAKFNQVTVGMTRAQVLATVGQGSCTTWSEYYPAYPSTAGVTLSLSCFDVDGYSSTGFYRGSAHLWFTDGVLQGKRQWDLV |  | 10 | 3.5
BLIP [change] (natural protein) AGVMTGAKFTQIQFGMTRQQVLDIAGAENCETGGSFGDSIHCRGHAAGDAYAYATFGFTSAAADAKVDSKSQEKLLAPSAPTLTLAKFNQVTVGMTRAQVLATVGQGSCTTWSEYYPAYPSTAGVTLSLSCFDVDGYSSTGFYRGSAHLWFTDGVLQGKRQWDLV |  | 1.9 | 
BLIP [change] (natural protein) AGVMTGAKFTQIQFGMTRQQVLDIAGAENCETGGSFGDSIHCRGHAAGDRYAYATFGFTSAAADAKVDSKSQEKLLAPSAPTLTLAKFNQVTVGMTRAQVLATVGQGSCTTWSEYYPAYPSTAGVTLSLSCFDVDGYSSTGFYRGSAHLWFTDGVLQGKRQWDLV |  | 11 | 69

From article PMC5340008 (BMC Biochemistry, 2017)
